Laboratory results as given in patent publication US20230111363A1 (LMMUNOMETABOLISM DEVELOPMENT, published 2023).
Changes are numbered by the printed parent chain. Names may count otherwise. One block for each binder: values may come before it.

Assays:
[1] = target: T1, human FcγRI (CD64) extracellular domain (human, UniProt P12314 16-292); assay: SPR (Biacore T100), antibody captured on Protein A, FcγR ECD as analyte, 25 C
T1 construct: extracellular domain; also called FcγRI ECD
Procedure: Unreacted sites were blocked with a 7 minute injection of ethanolamine at 10 μL/minute. […] FC1 was the reference FC, therefore no antibody was captured in FC1. […] Regeneration was performed by injecting 15 μL of 10 mM glycine, pH 1.5, at 30 μL/minute over all FCs. […] The affinity (KD) was calculated using either steady state equilibrium analysis with the Scrubber 2 Biacore Evaluation Software or a “1:1 (Langmuir) binding” model in BIA Evaluation. […] Duplicate injections of each concentration were injected over all FCs at 40 μL/minute for 60 seconds followed by a 120 second dissociation phase. […] The affinity (KD) was calculated using the steady state equilibrium analysis with the Scrubber 2 Biacore Evaluation Software.

[2] = target: T2, human monocarboxylate transporter 1 (MCT1) (human, UniProt P53985 1-500); assay: competition MSD binding assay, antibody titrated with HEK WT cells expressing MCT1, apparent KD, 37 C, average of triplicate
T2 construct: Multi-pass transmembrane transporter, endogenous on HEK WT / HEK293T cells and on primary human T and B cells in the assays; also called human MCT1; SLC16A1
T2 sequence: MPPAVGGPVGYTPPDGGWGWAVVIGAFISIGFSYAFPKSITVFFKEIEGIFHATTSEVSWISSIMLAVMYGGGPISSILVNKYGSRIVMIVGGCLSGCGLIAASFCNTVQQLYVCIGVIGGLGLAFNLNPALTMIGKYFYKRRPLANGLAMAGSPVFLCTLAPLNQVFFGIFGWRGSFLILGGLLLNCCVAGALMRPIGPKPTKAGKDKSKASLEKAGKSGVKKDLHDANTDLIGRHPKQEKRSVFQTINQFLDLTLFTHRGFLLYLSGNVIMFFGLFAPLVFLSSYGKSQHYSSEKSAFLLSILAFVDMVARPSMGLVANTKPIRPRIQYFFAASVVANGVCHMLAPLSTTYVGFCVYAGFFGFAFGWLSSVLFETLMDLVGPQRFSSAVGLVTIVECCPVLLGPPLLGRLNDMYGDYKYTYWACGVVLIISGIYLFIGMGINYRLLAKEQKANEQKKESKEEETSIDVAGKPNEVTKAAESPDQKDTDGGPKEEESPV
Text: Plates were then washed 3 times with PBST. […] Plates were washed 3 times with PBST.

[3] = target: T2, human monocarboxylate transporter 1 …; assay: cell-based or functional assay
[4] = target: T2, human monocarboxylate transporter 1 …; assay: competition MSD binding assay, antibody titrated with HEK WT cells expressing MCT1, apparent KD, screening at 25 C
Procedure: The mix was incubated at 37° C. for 1-2 days. After incubation, the incubated samples were spun down for 5 min at 500×g to remove cells. A 96-well multi-array plate (Meso Scale Diagnostics, Cat. #L15XA-3) was coated at 4° C. overnight with 1 μg/mL of goat anti human FC in phosphate buffered saline (PBS). Following coating, plates were washed 3 times with 150 μL PBST (PBS with 0.05% Tween 20) and blocked with 150 μL/well of PBS 3% blocker A buffer (Cat #R93BA-1) at 25° C. for 1 hr. Plates were then washed 3 times with PBST. 50 μL of the preincubated antibody: cell dilution series was transferred to the wells and incubated at 25° C. with 700 rpm shaking for 1 hr. Plates were washed 3 times with PBST. Then 100 μL of 1 μg/mL anti-human kappa-biotin antibody (Cat. #2060-08) was added, and plates were incubated at 25° C. with 700 rpm shaking […]. Plates were washed 3 times with PBST, followed by addition of 100 μL of 1 μg/mL MSD Sulfo-tag streptavidin antibody (Meso Scale Diagnostics Cat. #R32 AD1), and plates were incubated at 25° C. with 700 rpm shaking for 1 hr. Plates were washed 3 times with PBST, 150 μL/well of 1× Read Buffer T was added to the wells and analyzed on a SECTOR® Imager 6000 (Meso Scale Diagnostics) 15 min after buffer addition. The apparent KD is determined by fitting a sigmoidal curve to the electrochemiluminescence (ECL) response vs. log (MCT1 receptor concentration) using assay development tool kit graphed with normalized ECL values.

[5] = target: T2, human monocarboxylate transporter 1 …; assay: cell-based or functional assay; remark: listed apart in the source
[6] = target: T2, human monocarboxylate transporter 1 …; assay: cell-based MCT1 binding
[7] = target: T3, Human C1q (human, UniProt P02745 23-245; P02746 28-253; P02747 29-245); assay: ELISA, antibody coated on plate, human C1q detected with anti-human C1q-HRP (results not shown)
T3 construct: Bought (MS Biomedical); also called complement component C1q
T3 sequence (P02745 23-245 limits assumed, chain 1 of 3): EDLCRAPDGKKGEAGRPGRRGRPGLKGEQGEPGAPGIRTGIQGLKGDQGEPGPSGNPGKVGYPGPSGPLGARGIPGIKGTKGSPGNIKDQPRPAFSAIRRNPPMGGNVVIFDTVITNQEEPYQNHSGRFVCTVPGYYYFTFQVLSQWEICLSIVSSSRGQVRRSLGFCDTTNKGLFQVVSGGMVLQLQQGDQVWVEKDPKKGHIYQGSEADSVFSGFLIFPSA
T3 sequence (P02746 28-253 limits assumed, chain 2 of 3): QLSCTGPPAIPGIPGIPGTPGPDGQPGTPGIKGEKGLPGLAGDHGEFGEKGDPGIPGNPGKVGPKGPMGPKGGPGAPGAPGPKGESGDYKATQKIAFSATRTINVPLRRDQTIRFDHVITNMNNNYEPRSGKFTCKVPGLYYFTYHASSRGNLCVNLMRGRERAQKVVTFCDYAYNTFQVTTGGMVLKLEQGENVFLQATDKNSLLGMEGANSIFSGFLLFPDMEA
T3 sequence (P02747 29-245 limits assumed, chain 3 of 3): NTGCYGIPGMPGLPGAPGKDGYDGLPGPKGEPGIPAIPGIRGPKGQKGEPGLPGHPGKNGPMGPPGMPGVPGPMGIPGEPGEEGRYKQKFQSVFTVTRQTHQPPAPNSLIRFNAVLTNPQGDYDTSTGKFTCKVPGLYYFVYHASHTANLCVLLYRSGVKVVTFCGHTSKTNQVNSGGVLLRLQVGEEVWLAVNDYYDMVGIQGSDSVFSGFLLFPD

[8] = target: T2, human monocarboxylate transporter 1 …; assay: cell-based or functional assay; remark: listed apart in the source

T1 sequence (P12314 16-292): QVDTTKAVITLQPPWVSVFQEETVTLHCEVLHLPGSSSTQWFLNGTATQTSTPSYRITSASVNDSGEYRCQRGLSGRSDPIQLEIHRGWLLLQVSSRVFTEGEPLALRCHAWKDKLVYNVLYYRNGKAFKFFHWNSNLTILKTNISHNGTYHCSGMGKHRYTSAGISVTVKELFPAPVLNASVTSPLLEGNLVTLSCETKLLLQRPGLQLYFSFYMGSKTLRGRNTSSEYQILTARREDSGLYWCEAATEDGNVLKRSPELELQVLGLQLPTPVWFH

B2: anti-human MCT1 antibody Ab1 (antibody, human IgG1, kappa, V domains shown)
VH: QVQLVQSGAEVKKPGASVKVSCTVSGFSLTNYHLQWVRQAPGQGLEWMGFIRSSGNTEYNSEFKSRVTMTRDTSTSTVYMELSSLRSEDTAVYYCARNSWYHGTYYSPGYYVMDAWGQGTLVTVSS
VL: EIVLTQSPGTLSLSPGERATLSCKGSQNINNYLAWYQQKPGQAPRLLIYNRHNLQTGIPDRFSGSGSGTDFTLTISRLEPEDFAVYYCYQYSDGYTFGGGTKVEIKR
notes: human IgG1 effector null (IgG1EN) backbone; also called humanized Framework antibody Ab1
Kd [2]: 1.23 nM
IC50 of inhibition of MCT1 mediated transport (bromopyruvate assay, HEK293T cells) [3]: 164 nM
Kd [4]: 5.81 nM
IC50 of inhibition of CD4 T cell proliferation [5]: 59 nM
IC50 of inhibition of CD8 T cell proliferation [5]: 42 nM

B4: anti-human MCT1 antibody Ab6 (antibody, human IgG1, kappa)
heavy: QVQLVQSGAEVKKPGASVKVSCTVSGRSLTNYHLQWVRQAPGQGLEWMGFIRSSGNTEYNSRFKSRVTMTRDTSTSTVYMELSSLRSEDTAVYYCARNRWYHGTYYSPGYYVMDAWGQGTLVTVSSASTKGPSVFPLAPSSKSTSGGTAALGCLVKDYFPEPVTVSWNSGALTSGVHTFPAVLQSSGLYSLSSVVTVPSSSLGTQTYICNVNHKPSNTKVDKRVEPKSCDKTHTCPPCPAPEAEGAPSVFLFPPKPKDTLMISRTPEVTCVVVDVSHEDPEVKFNWYVDGVEVHNAKTKPREEQYNSTYRVVSVLTVLHQDWLNGKEYKCKVSNKALPSSIEKTISKAKGQPREPQVYTLPPSREEMTKNQVSLTCLVKGFYPSDIAVEWESNGQPENNYKTTPPVLDSDGSFFLYSKLTVDKSRWQQGNVFSCSVMHEALHNHYTQKSLSLSPGK
light: EIVLTQSPGTLSLSPGERATLSCKGSQNIENYLAWYQQKPGQAPRLLIYNRHNLQTGIPDRFSGSGSGTDFTLTISRLEPEDFAVYYCYQYSDGYTFGGGTKVEIKRTVAAPSVFIFPPSDEQLKSGTASVVCLLNNFYPREAKVQWKVDNALQSGNSQESVTEQDSKDSTYSLSSTLTLSKADYEKHKVYACEVTHQGLSSPVTKSFNRGEC
notes: IgG1EN backbone
Kd [2]: 0.59 nM
IC50 of inhibition of MCT1 mediated transport (bromopyruvate assay, HEK293T cells) [3]: 25 nM
Kd [4]: 1.27 nM
binding result [7]: no binding
IC50 of inhibition of B cell proliferation, Average of 3 donors [8]: 2.95 nM
IC50 of inhibition of B cell proliferation, Donor1 [8]: 3.06 nM
IC50 of inhibition of B cell proliferation, Donor3 [8]: 3.38 nM
IC50 of inhibition of CD4 T cell proliferation [5]: 3 nM
IC50 of inhibition of CD8 T cell proliferation [5]: 3 nM

B6: anti-human MCT1 antibody Ab20 (antibody, human IgG1, kappa, V domains shown)
VH: B2 VH with F27R, S99L
VL: B2 VL
notes: IgG1EN backbone
IC50 of inhibition of MCT1 mediated transport (bromopyruvate assay, HEK293T cells) [3]: 83 nM
Kd [4]: 0.64 nM
IC50 of inhibition of CD4 T cell proliferation [5]: 13 nM
IC50 of inhibition of CD8 T cell proliferation [5]: 6 nM

B7: anti-human MCT1 antibody Ab3 (antibody, human IgG1, kappa, V domains shown)
VH: EVQLVESGGGLVQPGGSLRLSCTVSGFSLTNYHLQWVRQAPGKGLEWVGFIRSSGNTEYNSEFKSRFTISRDDSKNSLYLQMNSLKTEDTAVYYCARNSWYHGTYYSPGYYVMDAWGQGTLVTVSS
VL: DIQMTQSPSTLSASVGDRVTITCKGSQNINNYLAWYQQKPGKAPKLLIYNRHNLQTGVPSRFSGSGSGTEFTLTISSLQPDDFATYYCYQYSDGYTFGGGTKVEIKR
notes: IgG1EN backbone
binding result [6]: binds

Next, values leading:

binding result [1]: no binding (tested: 200 nM)
B1: INX444 IgG1EN (antibody)
heavy: QVQLKESGPGLVKPSQTLSLTCTVSGFSLTNYHLQWVRQPPGKGLEWIGFIRSSGNTEYNPSLKSRVTISRDTSKNQVSLKLSSVTAADTAVYYCARKRWVHGTWYSPGYYVMDAWGQGTLVTVSSASTKGPSVFPLAPSSKSTSGGTAALGCLVKDYFPEPVTVSWNSGALTSGVHTFPAVLQSSGLYSLSSVVTVPSSSLGTQTYICNVNHKPSNTKVDKRVEPKSCDKTHTCPPCPAPEAEGAPSVFLFPPKPKDTLMISRTPEVTCVVVDVSHEDPEVKFNWYVDGVEVHNAKTKPREEQYNSTYRVVSVLTVLHQDWLNGKEYKCKVSNKALPSSIEKTISKAKGQPREPQVYTLPPSREEMTKNQVSLTCLVKGFYPSDIAVEWESNGQPENNYKTTPPVLDSDGSFFLYSKLTVDKSRWQQGNVFSCSVMHEALHNHYTQKSLSLSPGK
light: DIQLTQSPSAMSASVGDRVTITCRASQGISNYLAWYQQKPGKAPKLLIYAASTLQSGVASRFSGRGSGTDFTLTISSLQPEDFATYYCQQSDILPYTFGQGTKVEIKRTVAAPSVFIFPPSDEQLKSGTASVVCLLNNFYPREAKVQWKVDNALQSGNSQESVTEQDSKDSTYSLSSTLTLSKADYEKHKVYACEVTHQGLSSPVTKSFNRGEC
notes: INX444 of WO19136300 converted to the IgG1EN backbone (L234A, L235E, G237A, A330S, P331S, EU numbering)

binding result [6]: binds
B3: anti-human MCT1 antibody Ab2 (antibody, human IgG1, kappa, V domains shown)
VH: B2 VH
VL: B7 VL
notes: IgG1EN backbone

IC50 of inhibition of MCT1 mediated transport (bromopyruvate assay, HEK293T cells) [3]: 50 nM
Kd [4]: 0.85 nM
IC50 of inhibition of CD4 T cell proliferation [5]: 6 nM
IC50 of inhibition of CD8 T cell proliferation [5]: 4 nM
B5: anti-human MCT1 antibody Ab21 (antibody, human IgG1, kappa, V domains shown)
VH: B2 VH with F27R, S99R, A115P
VL: B2 VL
notes: IgG1EN backbone

binding result [6]: binds
B8: anti-human MCT1 antibody Ab5 (antibody, human IgG1, kappa, V domains shown)
VH: EVQLVQSGAEVKKPGESLKISCTVSGFSLTNYHLQWVRQMPGKGLEWMGFIRSSGNTEYNSEFKSQVTISADKSISTAYLQWSSLKASDTAMYYCARNSWYHGTYYSPGYYVMDAWGQGTLVTVSS
VL: B7 VL with T10S, E70D, D81E
notes: IgG1EN backbone

binding result [6]: binds
B9: anti-human MCT1 antibody Ab4 (antibody, human IgG1, kappa, V domains shown)
VH: B7 VH with Q13K, S77T
VL: B7 VL with T10S, E70D, D81E
notes: IgG1EN backbone
